From patent US20250154283A1 (published 2025)

T1: biotinylated cynomolgus monkey VWF cysteine knot (CK) domain construct (cynomolgus monkey, biotinylated in vitro (BirA) on the biotinylation tag; one N-glycan)
T1 construct: Expressed in HEK293 EBNA cells; disulfide-linked homodimer; also called cyno VWF CK; cyno VWF CK domain; not shown: in vitro biotinylation tag, HRV-3C site and 3 VWF residues before the CK domain
T1 chain: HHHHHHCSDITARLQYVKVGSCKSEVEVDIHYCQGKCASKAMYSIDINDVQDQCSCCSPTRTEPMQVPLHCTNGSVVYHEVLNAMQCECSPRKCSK

B1: Lib1_P1_F10_scFv (scFv)
scFv: QVQLVQSGAEVKKPGASVKVSCKVSGYTFSSSGIHWVRQAPGKGLEWMGGIFPNFGTAIYAQKFQGRVTMTEDTSTDTAYMELSSLKSEDTAVYYCARESDFWSGSFTNWGQGTLVTVSSSGGSTITSYNVYYTKLSSSGTDIQMTQSPSSVSASVGDRVTITCRASRSIGNWLAWYQQKPGKAPKLLIYDAFNRASGVPSRFSGSGSGTDFTLTISSLQPEDFANYYCQQSYSTLPRYSFGGGTKVEIK
notes: VH-linker-VL; not shown: C-terminal 3xFLAG and SV5 tags
B2: 4675_Lib4_scFv (scFv)
scFv: QVQLQESGPGLVKPSQTLSLTCTVSGFSLTSHPEGVNWIRQPPGKGLEWIGYIAHSGTTDYNPSLKSRVTMSVDTSKNQFSLKVNSVTAADTAVYYCARAYGDSDAFDIWGQGTMVTVSSSGGSTITSYNVYYTKLSSSGTEIVMTQSPATLSLSPGERATLSCRASQSIGRNLAWYQQKPGQAPRLLIYGASKRVTGIPARFSGSGSGTDFTLTISSLEPEDFAVYYCQQYSTWPTFGGGTKVEIK
notes: as for B1
B3: 69_Lib8_scFv (scFv)
scFv: EVQLVESGGGLVQPGRSLRLSCAASAFTFSNYDMHWVRQAPGKGLEWVSAISGSGDTSDYADSVEGRFTISRDNAKNSLYLQMNSLRAEDTAVYYCVRASWYGTFFDYWGQGTLVTVSSSGGSTITSYNVYYTKLSSSGTDIQMTQSPSSLSASVGDRVTITCRASQSVSGWLAWYQQKPGKAPKLLIYGTSTLQSGVPSRFSGSGSGTDFTLTISSLQPEDVATYYCQQSYSAPYTFGGGTKVEIK
notes: as for B1
B4: 5662_Lib8_scFv (scFv)
scFv: EVQLVESGGGLVQPGRSLRLSCAASGFNFHNYDMHWVRQAPGKGLEWVSAIDISGQSTDYADSVEGRFTISRDNAKNSLYLQMNSLRAEDTAVYYCAREGWYGGVFDYWGQGTLVTVSSSGGSTITSYNVYYTKLSSSGTDIQMTQSPSSLSASVGDRVTITCRASQDIANWLAWYQQKPGKAPKLLIYGASESGVGVPSRFSGSGSGTDFTLTISSLQPEDVATYYCQQSLTMKTFGGGTKVEIK
notes: as for B1
B5: Lib6_P3_A4_scFv (scFv)
scFv: QVQLVQSGAEVKKPGASVKVSCKVSGDTLSNYAIHWVRQAPGKGLEWMGGINPNAGTTIYAQKFQGRVTMTEDTSTDTAYMELSSLKSEDTAVYYCARDSSSWCPVGYYYYYMDVWGKGTTVTVSSSGGSTITSYNVYYTKLSSSGTDIQMTQSPSSVSASVGDRVTITCRASQSIGDFLAWYQQKPGKAPKLLIYDASHLQTGVPSRFSGSGSGTDFTLTISSLQPEDFANYYCQQTSTIPPTFGGGTKVEIK
notes: as for B1
B6: Lib1_P1_A5_scFv (scFv)
scFv: B5 scFv
notes: as for B1
B7: Lib4_P2_D1_scFv (scFv)
scFv: B5 scFv
notes: as for B1
B8: 76_Lib4_scFv (scFv)
scFv: QVQLQESGPGLVKPSQTLSLTCTVSGVSISNHYWSWIRQPPGKGLEWIGYIDESGSTDYNPSLKSRVTMSVDTSKNQFSLKVNSVTAADTAVYYCARVSWGYYAMDVWGQGTTVTVSSSGGSTITSYNVYYTKLSSSGTEIVMTQSPATLSLSPGERATLSCRASQGVSGHLAWYQQKPGQAPRLLIYETSKRATGIPARFSGSGSGTDFTLTISSLEPEDFAVYYCQQYNDYPLGFGGGTKVEIK
notes: as for B1

target: T2, biotinylated human VWF cysteine knot (CK) domain construct (human, UniProt P04275 2724-2813, biotinylated in vitro (BirA) on the biotinylation tag; one N-glycan); assay: SPR, scFv captured via anti-SV5, CK domain injected, pH 5.5, apparent Kd;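 further: scFvs from crude yeast supernatants captured on chip-bound anti-SV5 antibody, Kd computed as koff divided by kon, dimeric CK construct likely makes affinity appear higher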
T2 construct: Expressed in HEK293 EBNA cells; disulfide-linked homodimer; also called human VWF CK; human VWF CK domain; not shown: in vitro biotinylation tag, HRV-3C site and 3 VWF residues before the CK domain

Point of comparison: B3, Kd 0.859 nM. Against it:
- B1 — 18-fold higher, 15.3 nM
- B2 — 16-fold higher, 13.6 nM
- B4 — within 1.5-fold, 0.687 nM
- B5 — 1.7-fold lower, 0.52 nM
- B6 — 5.8-fold higher, 5.02 nM
- B7 — within 1.5-fold, 0.984 nM
- B8 — 2.3-fold lower, 0.366 nM

target: T2, biotinylated human VWF cysteine knot …; assay: SPR, scFv captured via anti-SV5, CK domain injected, pH 7.4, apparent Kd;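 further: scFvs from crude yeast supernatants printed on an amine-coupled anti-SV5 lawn, Kd computed as koff over kon, likely overestimating affinity because the CK construct is dimeric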

Point of comparison: B8, Kd 3.91 nM. Against it:
- B1 — within 1.5-fold, 4.97 nM
- B2 — within 1.5-fold, 4.26 nM
- B3 — within 1.5-fold, 3.7 nM
- B4 — within 1.5-fold, 4.31 nM
- B5 — within 1.5-fold, 4.97 nM
- B6 — 1.6-fold higher, 6.37 nM
- B7 — within 1.5-fold, 5.02 nM

Target: T1, biotinylated cynomolgus monkey VWF …
Assay: as above

Point of comparison: B7, Kd 0.517 nM. Against it:
- B1 — 2.9-fold higher, 1.5 nM
- B2 — 4.7-fold higher, 2.42 nM
- B3 — 2-fold higher, 1.05 nM
- B4 — 2.6-fold higher, 1.36 nM
- B5 — 6.7-fold higher, 3.46 nM
- B6 — 3.4-fold higher, 1.74 nM
- B8 — 2.5-fold higher, 1.29 nM
